The text below walks through data of patent US11814447B2, “Peptide ligands for binding to EphA2” (BICYCLERD LIMITED, priority 2018, dated 2023).

Starred links: 1 amine or outer side, 2 acyl side, 3 side chain; linkers in the order of their positions; H or OH if unused. Positions of bridges follow the written chain, without caps; N, C: chain ends. Non-standard residues stand in square brackets, D forms with d. Primed or numbered codes have the meaning given here. No end group written: not given here. TBMB′ = 1,3,5-tris(bromomethyl)benzene, 1,3,5-tris(methylene)benzene core, three thioethers to Cys; TATA = O=C(CC[*:1])N1CN(C(=O)CC[*:2])CN(C(=O)CC[*:3])C1; Fl″ = fluorescein label (5(6)-carboxyfluorescein; 1Nal = N[C@@H](Cc1cccc2ccccc12)C(=O)O; TBMB = c1c(C[*:1])cc(C[*:3])cc1C[*:2]; hArg = N=C(N)NCCCC[C@H](N)C(=O)O; Tle = CC(C)(C)[C@H](N)C(=O)O; Dap = NC[C@H](N)C(=O)O; AF488 = AlexaFluor488; Aib = CC(C)(N)C(=O)O; βAla = NCCC(=O)O; Sar = CNCC(=O)O

Broadly, the Ki is the dissociation constant of the complex between target and ligand, obtained from inhibition or displacement. A low value points to tighter binding. Broadly, the Kd is the equilibrium constant for the complex coming apart. Low values mean a tighter complex, high ones a looser complex.

The target of assay [1] is T1, Human EphA2 (Ecto) (Human, UniProt P29317 24-537).
T1 construct: extracellular domain; in-house)
The assay is described as follows: FP competition; tracer Reference Compound A. As to the method: (§1) Peptides without a fluorescent tag were tested in competition with a peptide with a fluorescent tag and a known Kd (Table 2). Peptides were diluted to an appropriate concentration in assay buffer as described in the direct binding assay with a maximum of 5% DMSO, then serially diluted 1 in 2. […] Measurements were conducted as for the direct binding assay, however the gain was determined prior to the first measurement. Data analysis was in Systat Sigmaplot version 12.0 where the mP values were fit to a user defined cubic equation to generate a Ki value: […]

Assay [2] deals with T1, Human EphA2 (Ecto). The assay is described as follows: FP competition; tracer Reference Compound C. The essentials:
(§2)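 Unlabelled peptides competed against a fluorescently tagged peptide of known Kd. Peptides were diluted in direct-binding assay buffer (≤5% DMSO) and serially diluted 1 in 2. Read as in the direct binding assay, with gain set before the first read; mP values fit to a cubic equation to give Ki.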

The target of assay [3] is Human EphA2 (Ecto) (Human) (UniProt P29317). The assay is described as follows: FP direct binding.
Assay [4] shares this target. The assay is described as follows: FP competition; tracer Reference Compound C.
The target of assay [5] is Mouse EphA2 (Ecto) (Mouse) (UniProt Q03145). The assay is described as follows: FP competition; tracer Reference Compound C.
Assay [6] deals with EphA2 (species not stated in Examples 1-6 and Reference Examples 1-2) (Homo sapiens (Human), UniProt P29317 24-537). Briefly: fluorescence polarisation competition; fluorescent peptide not named.
Assay [7] concerns the target T2, Human EphA2 (Ecto), C-terminal polyHis (Human, UniProt P29317 24-537).
T2 construct: extracellular domain; also called EPH receptor A2; ephrin type-A receptor 2
The assay is described as follows: fluorescence polarisation competition; competitor fluorescent Compound 66. How it is done: as §1
(In fluorescence polarisation assays a small probe gives low polarisation when free and higher when bound to something large.)

The target in assay [8] is T2, Human EphA2 (Ecto), C-terminal polyHis. Briefly: fluorescence polarisation competition; competitor fluorescent Compound 12. How it is done:
as §1

Assay [9] shares this target. Briefly: fluorescence polarisation competition; competitor fluorescent Compound 1. How it is done: as §1
The target is the same in assay [10]. The assay is described as follows: fluorescence polarisation, direct binding. How it is done: Biological Data 1. […] The gain used for analysis was determined for each tracer at the end of the 60 minutes where there was no protein in the well. Data was analysed using Systat Sigmaplot version 12.0. mP values were fit to a user defined quadratic equation to generate a Kd value: f=y min+(y max−y min)/Lig*((x+Lig+Kd)/2−sqrt((((x+Lig+Kd)/2)^2)−(Lig*x))). "Lig" was a defined value of the concentration of tracer used.

For assay [11], the target named is T1, Human EphA2 (Ecto). Briefly: FP competition; tracer Reference Compound B. As to the method:
as §1

Assay [12] has as its target Human EphA2 (Ecto) (Human) (UniProt P29317). The assay is described as follows: FP competition, tracer Compound 18.
Assay [13] concerns the target Mouse EphA2 (Ecto) (Mouse) (UniProt Q03145). The assay is described as follows: FP competition, tracer Compound 18.
Assay [14] deals with T3, Mouse EphA2 (Ecto) (Mouse, UniProt Q03145 26-538).
T3 construct: extracellular domain; not shown: Fc fusion or C-terminal polyHis
The assay is described as follows: fluorescence polarisation, direct binding.

The target of assay [15] is T4, Mouse EphA2 (Ecto) (Mouse, UniProt Q03145 26-538).
T4 construct: extracellular domain
Briefly: FP competition, tracer Compound 18. The essentials: as §2

Assay [16] deals with T5, Human EphA2 (Ecto) (Human, UniProt P29317 24-537).
T5 construct: extracellular domain
The assay is described as follows: FP competition, tracer Compound 18. Put shortly:
as §2

Assay [17] concerns the target EphA2 (species not stated in Examples 1-6 and Reference Examples 1-2) (Homo sapiens (Human)) (UniProt P29317). Briefly: fluorescence polarisation competition; fluorescent peptide not named.

Mouse EphA2 (Ecto) (Mouse), sequence (Q03145 26-538): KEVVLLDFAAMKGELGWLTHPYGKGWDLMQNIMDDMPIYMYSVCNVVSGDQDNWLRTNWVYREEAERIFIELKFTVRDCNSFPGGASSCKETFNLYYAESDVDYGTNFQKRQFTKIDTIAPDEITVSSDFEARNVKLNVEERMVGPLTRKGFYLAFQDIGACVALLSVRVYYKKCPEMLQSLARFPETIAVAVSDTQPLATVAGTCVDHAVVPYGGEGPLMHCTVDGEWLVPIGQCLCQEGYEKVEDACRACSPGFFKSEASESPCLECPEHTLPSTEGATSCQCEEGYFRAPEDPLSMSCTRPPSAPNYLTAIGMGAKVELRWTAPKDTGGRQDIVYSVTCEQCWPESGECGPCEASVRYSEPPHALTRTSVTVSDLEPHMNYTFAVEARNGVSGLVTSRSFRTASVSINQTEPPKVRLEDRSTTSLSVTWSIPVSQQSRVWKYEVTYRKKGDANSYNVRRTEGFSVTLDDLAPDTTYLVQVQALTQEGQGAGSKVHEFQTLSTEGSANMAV
T2 sequence (P29317 24-537): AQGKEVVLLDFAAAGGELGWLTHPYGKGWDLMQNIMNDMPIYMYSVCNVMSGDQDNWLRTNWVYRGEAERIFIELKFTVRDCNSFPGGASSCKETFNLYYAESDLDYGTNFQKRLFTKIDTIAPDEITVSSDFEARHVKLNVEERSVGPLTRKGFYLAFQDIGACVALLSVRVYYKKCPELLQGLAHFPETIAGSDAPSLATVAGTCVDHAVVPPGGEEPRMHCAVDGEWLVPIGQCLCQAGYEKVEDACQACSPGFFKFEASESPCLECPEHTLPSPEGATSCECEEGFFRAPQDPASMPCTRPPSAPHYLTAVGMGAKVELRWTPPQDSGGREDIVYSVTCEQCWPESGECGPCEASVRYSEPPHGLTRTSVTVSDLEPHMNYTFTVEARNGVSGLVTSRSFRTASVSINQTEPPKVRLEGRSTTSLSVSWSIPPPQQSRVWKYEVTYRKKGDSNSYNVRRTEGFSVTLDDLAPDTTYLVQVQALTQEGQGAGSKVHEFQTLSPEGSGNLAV
Human EphA2 (Ecto) (Human), sequence (P29317 24-537): as above
EphA2 (species not stated in Examples 1-6 and Reference Examples 1-2), sequence (P29317 24-537 limits assumed, form in doubt): as the sequence (P29317 24-537) above
EphA2 (species not stated in Examples 1-6 and Reference Examples 1-2) (Homo sapiens (Human)), sequence (P29317 24-537 limits assumed, form in doubt): as the sequence (P29317 24-537) above

Consider ACTSCWAYPDSFCA (linker 2-5-13 via TATA) [Bicycle Compound Number 32 (TATA scaffold), ACTSCWAYPDSFCA], for which the Ki in assay [1] was 151 nM; in assay [2] it was 232 nM.

In assay [3], {Fl″}-[βAla][Sar][Sar][Sar][Sar][Sar][Sar][Sar][Sar][Sar][Sar]A[hArg]DCPLVNPLCLHPGWTC (linker 15-22-29 via TATA) [Bicycle Compound 10 (TATA, Table 11)] registered a Kd of 9.07 nM. As to [βAla][Sar][Sar][Sar][Sar][Sar][Sar][Sar][Sar][Sar][Sar]A[hArg]DCPLVNPLCLHPGWTC (linker 15-22-29 via TATA) [Bicycle Compound Number 67 (BCY6014) (TATA scaffold), (β-Ala)-Sar10-A(HArg)…], the Ki in assay [4] was found to be 8.51 nM; in assay [5], 61.7 nM.

B1: 55-03-05-N233 (peptide)
peptide: [βAla][Sar][Sar][Sar][Sar][Sar][Sar][Sar][Sar][Sar][Sar]H[dD]VPCPWGPFWCPVNRPGC
modifications: linker 16-23-30 via TBMB
notes: bicyclic peptide on trimethylene benzene scaffold
Take B1: in assay [6], the Ki turned out to be 4.12 nM. For [βAla][Sar][Sar][Sar][Sar][Sar][Sar][Sar][Sar][Sar][Sar]ACPLVNPLCLHPGWSC[hArg]GQ (linker 13-20-27 via TATA) [Bicycle Compound Number 90 (TATA scaffold), (β-Ala)-Sar10-…(HArg)GQ], the Ki was 5.41 nM in [4] and 47 nM in assay [5].

As for ACVPQGIWCALQFEPCA (linker 2-9-16 via TBMB (inferred), also called Compound 63) [Bicycle Compound Number 63 (TBMB scaffold)], the Ki in assay [7] was determined as 82.5 nM; in assay [8], 92.2 nM; in assay [9], 144 nM.

B2: Bicycle Compound Number 14 (TBMB scaffold) (peptide)
peptide: GXXXXXXXXXXACPWGPAWCPVNRPGCA
modifications: N-terminal AF488 (AlexaFluor488); Sar10; 3 Cys thioether-linked to TBMB scaffold
Molecule B2 returned a Kd in assay [10] of 38 nM.

Take ACPWGPAWCPVNRPGCAGAAA (linker 2-9-16 via TBMB (inferred), also called Compound 45) [Bicycle Compound Number 45 (TBMB scaffold)]: the Ki came out at 117 nM in [7] and 99.2 nM in assay [8]. Consider ACYVGKECAYMNVCA (linker 2-8-14 via TATA) [Bicycle Compound Number 29 (TATA scaffold), ACYVGKECAYMNVCA], for which the figures for the Ki in assay [1], in assay [11] and in assay [2] were 87.7 nM, 107 nM and 210 nM, respectively. As to Ac-[Sar][Sar]H[dD]VPCP[1Nal]G[Aib]F[1Nal]CP[Tle]NR[Aib]GC (linker 7-14-21 via TBMB) [Bicycle Compound 262], the figures for the Ki in assay [12] and in assay [13] were 0.71 nM and 0.72 nM, respectively. Regarding AF488-G[Sar][Sar][Sar][Sar][Sar][Sar][Sar][Sar][Sar][Sar]ACMNDWLCSLGWTC (linker 13-19-25 via TBMB) [Bicycle Compound Number 2 (TBMB scaffold)], the Kd in [10] came to 326 nM. For the molecule Ac-[Sar][Sar]H[dD]VPCP[1Nal]G[Aib]F[1Nal]CP[Tle]N[hArg]P[dD]C (linker 7-14-21 via TBMB) [Bicycle Compound 254], the results for the Ki in assay [12] and in assay [13] were 0.74 nM and 0.64 nM, respectively. In assay [14], AF488-[βAla][Sar][Sar][Sar][Sar][Sar][Sar][Sar][Sar][Sar][Sar]H[dD]VPCPWGPFWCPVNRPGCA (linker 16-23-30 via TBMB) [Bicycle Compound Number 139 (TBMB scaffold)] had a Kd of 0.8 nM. In other words, the sub-nanomolar range.

For Ac-[Sar][Sar]A[dD]VTCPWGPFWCPVNRPGC (linker 7-14-21 via TBMB′) [Bicycle Compound 158], the values for the Ki in [15] and in [16] were 2.2 nM and 2.05 nM, respectively. The corresponding values for Ac-[Sar][Sar]H[dD]VPCPWGPFWCPVNRPGC (linker 7-14-21 via TBMB) [Bicycle Compound 225] are 2.08 nM and 1 nM.

As to ACRNIPTMCPFGPVWCA (linker 2-9-16 via TBMB, also called Compound 32) [Bicycle Compound Number 32 (TBMB scaffold)], the Ki in assay [9] came to 83.4 nM. In other words, the double-digit nanomolar range. On to Ac-[βAla][Sar][Sar][Sar][Sar][Sar][Sar][Sar][Sar][Sar][Sar]H[dD]VP[Dap]PWGPFW[Dap]PVNRPGC (linker 16-23-30 via TBMB) [55-03-05-N314], for which the Ki in assay [17] was found to be 136 nM. Take ACTTGSIWCALQFEPCA (linker 2-9-16 via TBMB (inferred), also called Compound 64) [Bicycle Compound Number 64 (TBMB scaffold)]: the Ki in [7] is 63.4 nM; in assay [8], 410 nM. With ACQPSNHCAFMNYCA (linker 2-8-14 via TATA) [Bicycle Compound Number 30 (TATA scaffold), ACQPSNHCAFMNYCA], the Ki in [1] is 137 nM; in assay [11] it was 187 nM.
